Experimental data reported in paper PMC3593993.

Target: constitutively active Go2α (Go2αQ205L), Gal4 DNA-binding domain fusion (pGBKT7-Go2αQ205L) (UniProt P18872)
Test: two-hybrid

fold of the interaction (α-galactosidase activity) against Go1αQ205L: 2.5 fold
Substance: Girdin prey of the mating and α-galactosidase experiments (pACT2-Girdin) (from UniProt Q5SNZ0 1318-1873) (domain or fragment)
